According to patent US20040176285A1, “Tip39 polypeptides” (priority 2001, published 2004):
Where no end group is shown, it is not given here.

Experiments:
[1] = molecular target: T1, PTH1R (Homo sapiens, UniProt Q03431); assay: Inhibition of agonist-stimulated cAMP accumulation in HKrk-B7 cells; format: cell-based; set-up: expressed in transfected cells; conditions: agonist PTH(1-34), PTHrP(1-36) or PTHrP(1-20)/TIP(23-39) at 1 nM (about half-maximal)
T1 sequence (Q03431 27-593): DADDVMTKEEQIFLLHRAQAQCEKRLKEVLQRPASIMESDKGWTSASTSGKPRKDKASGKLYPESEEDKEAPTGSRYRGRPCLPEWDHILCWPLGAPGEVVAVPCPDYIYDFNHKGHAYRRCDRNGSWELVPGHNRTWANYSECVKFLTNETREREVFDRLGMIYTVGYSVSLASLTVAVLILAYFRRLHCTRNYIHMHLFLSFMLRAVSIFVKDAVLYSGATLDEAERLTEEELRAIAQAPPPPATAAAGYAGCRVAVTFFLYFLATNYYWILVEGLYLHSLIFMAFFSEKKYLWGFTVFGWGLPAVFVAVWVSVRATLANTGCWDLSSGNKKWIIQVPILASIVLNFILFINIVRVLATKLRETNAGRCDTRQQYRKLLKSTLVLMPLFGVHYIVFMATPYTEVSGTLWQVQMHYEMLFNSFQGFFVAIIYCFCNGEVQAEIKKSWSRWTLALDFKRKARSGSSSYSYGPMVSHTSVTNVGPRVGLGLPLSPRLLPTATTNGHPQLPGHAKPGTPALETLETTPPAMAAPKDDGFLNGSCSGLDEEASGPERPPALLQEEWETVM
Source text: (§1) FIG. 4A-4F. Inhibition of agonist-stimulated cAMP accumulation in HKrk-B7 cells (FIG. 4A-4C) or SaOS-2 cells (FIG. 4D-4F). […] Data are expressed as % of half-maximal cAMP accumulation and represent the results (mean±SE) of at least three independent experiments.
(§2) Na^125I (specific activity: 2,000 Ci/mmol) was purchased from DuPont/NEN, Boston, Mass. Fetal bovine serum, 3-isobutyl-1-methyl-xanthine (IBMX), and BSA were from Sigma, St. Louis, Mo., and trifluoroacetic acid (TFA) was from Pierce, Rockford, Ill. Radiolabeled rPTH(1-34) and PTHrP(1-36) were prepared by the chloramine-T method, followed by HPLC purification using a 30-50% ACN/0.1% TFA gradient over 30 minutes; radioreceptor assays were performed in 24-well plates as previously described (Gardella, T. J., et al., J. Biol. Chem. 271:19888-19893 (1996); Fukayama, S. et al., Endocrinology 134:1851-1858 (1994)). […] The entire lysate was counted for γ-irradiation. Specific binding was determined after subtracting radioactivity bound in the presence of maximal concentrations of unlabeled competing peptide (10^−6 M). […] Data were analyzed and graphically illustrated using the graph-pad prism software package.

[2] = molecular target: T1, PTH1R; assay: Inhibition of agonist-stimulated cAMP accumulation in SaOS-2 cells; format: cell-based; set-up: expressed in transfected cells; conditions: SaOS-2 cells (stated for both cell lines); agonists 0.15-0.3 nM
Source text: as §1, §2

[3] = molecular target: T1, PTH1R; assay: Ligand-stimulated cAMP accumulation in HKrk-B7 cells; format: cell-based; set-up: expressed in transfected cells; conditions: HKrk-B7 cells
Method: (§3) DMEM, Trypsin/EDTA, and penicillin G/streptomycin and horse serum were from Gibco/BRL, Life Technologies, Gaithersburg, Md. LLC-PK, expressing the recombinant human PTH1R (HKrk-B7 cells) and SaOS-2 cells expressing the wild-type PTH1R endogenously were cultured in DMEM supplemented with 10% heat-inactivated fetal bovine serum, 100 U/ml penicillin, 100 μg/ml streptomycin, as previously described (Gardella, T. J., et al., J. Biol. Chem. 271:19888-19893 (1996); Fukayama, S., et al., Endocrinology 134:1851-1858 (1994)); both cell lines were maintained in a humidified atmosphere containing 95% air and 5% CO2. After seeding, medium was replaced daily, until cells were used for radioligand binding or cAMP accumulation assays.
(§4) Na^125I (specific activity: 2,000 Ci/mmol) was purchased from DuPont/NEN, Boston, Mass. Fetal bovine serum, 3-isobutyl-1-methyl-xanthine (IBMX), and BSA were from Sigma, St. Louis, Mo., and trifluoroacetic acid (TFA) was from Pierce, Rockford, Ill. Radiolabeled rPTH(1-34) and PTHrP(1-36) were prepared by the chloramine-T method, followed by HPLC purification using a 30-50% ACN/0.1% TFA gradient over 30 minutes; radioreceptor assays were performed in 24-well plates as previously described (Gardella, T. J., et al., J. Biol. Chem. 271:19888-19893 (1996); Fukayama, S. et al., Endocrinology 134:1851-1858 (1994)). In brief, each well (final volume 500 μl) contained binding buffer (BB; 50 mM Tris-HCl (pH 7.7), 100 mM NaCl, 5 mM KCl, 2 mM CaCl2, 5% heat-inactivated horse serum, and 0.5% heat-inactivated fetal bovine serum), the ^125I-labeled PTH or PTHrP analog (100,000 to 200,000 cpm) was incubated in the absence or presence of increasing concentrations of unlabeled peptides. After 4 h at 16° C., buffer was completely removed, the cells were rinsed with cold BB and lysed with 1 M NaOH. The entire lysate was counted for γ-irradiation. Specific binding was determined after subtracting radioactivity bound in the presence of maximal concentrations of unlabeled competing peptide (10^−6 M). Agonist-dependent stimulation of cAMP accumulation by HKrk-B7 and SaOS-2 cells (48-well plates; stimulation at room temperature for 45 minutes) and the subsequent measurement of cAMP by radioimmunoassay was performed as previously described (Gardella, T. J., et al., J. Biol. Chem. 271:19888-19893 (1996); Bergwitz, C., et al., Endocrinology 139:723-732 (1998)). Data were analyzed and graphically illustrated using the graph-pad prism software package.
The values for EC50 and Vmax (mean±SE) are derived from at least three independent experiments.

[4] = molecular target: T2, endogenous PTH1R (Homo sapiens, UniProt Q03431); assay: Ligand-stimulated cAMP accumulation in SaOS-2 cells; format: cell-based; conditions: SaOS-2 cells
T2 construct: SaOS-2 cells expressing the wild-type PTH1R endogenously; endogenous in cells; host or cells: SaOS-2 human osteosarcoma cells
T2 sequence (Q03431 27-593): T1 sequence (Q03431 27-593)
Method: as §3
as §4, with “After 4 h at 16° C., buffer was completely removed, the cells were rinsed with cold BB and lysed with 1 M NaOH.” left out, “Agonist-dependent stimulation of cAMP accumulation by HKrk-B7 and SaOS-2 cells (48-well plates; stimulation at room temperature for 45 minutes) and the subsequent measurement of cAMP by radioimmunoassay was performed as previously described (Gardella, T. J., et al., J. Biol. Chem. 271:19888-19893 (1996); Bergwitz, C., et al., Endocrinology 139:723-732 (1998)).” left out, “package. […]” for “package.”

[5] = molecular target: T3, human PTH2 receptor (Homo sapiens, UniProt P49190); assay: Ligand-stimulated cAMP accumulation in hPR2-20 LLCPK1 cells; format: cell-based
T3 construct: expressed in transfected cells
T3 sequence (P49190 25-550): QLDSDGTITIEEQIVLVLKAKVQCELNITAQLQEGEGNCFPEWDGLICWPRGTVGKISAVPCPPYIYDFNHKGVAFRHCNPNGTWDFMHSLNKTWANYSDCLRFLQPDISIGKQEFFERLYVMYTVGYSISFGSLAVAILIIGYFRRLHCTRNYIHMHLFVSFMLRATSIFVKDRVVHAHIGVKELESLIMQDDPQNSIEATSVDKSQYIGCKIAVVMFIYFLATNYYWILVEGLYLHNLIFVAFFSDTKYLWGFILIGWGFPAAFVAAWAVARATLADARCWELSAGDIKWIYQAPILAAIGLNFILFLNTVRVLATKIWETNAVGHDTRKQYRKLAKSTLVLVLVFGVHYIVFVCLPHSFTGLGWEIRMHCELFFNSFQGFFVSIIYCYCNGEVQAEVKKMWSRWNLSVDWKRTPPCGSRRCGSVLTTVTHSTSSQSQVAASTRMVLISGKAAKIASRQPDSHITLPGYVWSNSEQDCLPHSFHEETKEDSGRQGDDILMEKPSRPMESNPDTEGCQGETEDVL

[6] = molecular target: T1, PTH1R; conditions: cited from earlier work
[7] = molecular target: T1, PTH1R; conditions: cited from earlier work; remark: listed apart in the source
[8] = molecular target: T1, PTH1R; conditions: cited from earlier work; remark: listed apart in the source
[9] = molecular target: T4, human PTH/PTHrP receptor (PTH1R) (human, UniProt Q03431 27-593); assay: cell-based or functional assay
T4 sequence (looked up): T1 sequence (Q03431 27-593)

[10] = molecular target: T4, human PTH/PTHrP receptor (PTH1R); assay: radioreceptor competition on HKrk-B7 cells; tracer 125I-rat [Nle8,21,Tyr34]PTH(1-34)amide
Method: (§5) Na¹²⁵I (specific activity: 2,000 Ci/mmol) was purchased from DuPont/NEN, Boston, Mass. Fetal bovine serum, 3-isobutyl-1-methyl-xanthine (IBMX), and BSA were from Sigma, St. Louis, Mo., and trifluoroacetic acid (TFA) was from Pierce, Rockford, Ill. […] After 4 h at 16° C., buffer was completely removed, the cells were rinsed with cold BB and lysed with 1 M NaOH. The entire lysate was counted for γ-irradiation. Specific binding was determined after subtracting radioactivity bound in the presence of maximal concentrations of unlabeled competing peptide (10⁻⁶ M). Agonist-dependent stimulation of cAMP accumulation by HKrk-B7 and SaOS-2 cells (48-well plates; stimulation at room temperature for 45 minutes) and the subsequent measurement of cAMP by radioimmunoassay was performed as previously described (Gardella, T. J., et al., J. Biol. Chem. 271:19888-19893 (1996); Bergwitz, C., et al., Endocrinology 139:723-732 (1998)). Data were analyzed and graphically illustrated using the graph-pad prism software package.

[11] = molecular target: T4, human PTH/PTHrP receptor (PTH1R); assay: radioreceptor competition on HKrk-B7 cells; tracer 125I-[Tyr36]PTHrP(1-36)amide
Method: as §5

[12] = molecular target: T4, human PTH/PTHrP receptor (PTH1R); assay: radioreceptor competition on HKrk-B7 cells; either tracer
Method: (§6) Specific binding was determined after subtracting radioactivity bound in the presence of maximal concentrations of unlabeled competing peptide (10⁻⁶ M). Agonist-dependent stimulation of cAMP accumulation by HKrk-B7 and SaOS-2 cells (48-well plates; stimulation at room temperature for 45 minutes) and the subsequent measurement of cAMP by radioimmunoassay was performed as previously described (Gardella, T. J., et al., J. Biol. Chem. 271:19888-19893 (1996); Bergwitz, C., et al., Endocrinology 139:723-732 (1998)). Data were analyzed and graphically illustrated using the graph-pad prism software package.

[13] = molecular target: T4, human PTH/PTHrP receptor (PTH1R); assay: radioreceptor competition on HKrk-B7 cells
Method: as §6

[14] = molecular target: T4, human PTH/PTHrP receptor (PTH1R); assay: cell-based or functional assay; remark: listed apart in the source

CC[C@H](C)[C@H](NC(=O)[C@H](CC(C)C)NC(=O)[C@H](Cc1c[nH]cn1)NC(=O)[C@H](Cc1c[nH]cn1)NC(=O)[C@H](CC(C)C)NC(=O)[C@H](Cc1c[nH]c2ccccc12)NC(=O)[C@H](Cc1ccccc1)NC(=O)[C@H](CCCNC(=N)N)NC(=O)[C@H](CCCNC(=N)N)NC(=O)[C@H](CCCNC(=N)N)NC(=O)[C@H](CC(C)C)NC(=O)[C@H](CC(=O)O)NC(=O)[C@H](CCC(N)=O)NC(=O)[C@@H](NC(=O)[C@H](CO)NC(=O)[C@H](CCCCN)NC(=O)[C@@H](Cc1c[nH]c2ccccc12)NC(=O)[C@H](CC(C)C)NC(=O)[C@H](CC(=O)O)NC(=O)[C@H](Cc1c[nH]cn1)NC(=O)[C@H](CC(C)C)NC(=O)[C@@H](N)CC(C)C)[C@@H](C)CC)C(=O)N[C@@H](C)C(=O)N[C@@H](CCC(=O)O)C(=O)N[C@H](C(=O)N[C@@H](Cc1c[nH]cn1)C(=O)N[C@H](C(=O)N[C@@H](C)C(=O)N[C@@H](CCC(=O)O)C(=O)N[C@@H](Cc1ccc(O)cc1)C(N)=O)[C@@H](C)O)[C@@H](C)CC [PTHrP(7-36), [Leu^11, D-Trp^12, Trp^23, Tyr^36]PTHrP(7-36)amide]
IC50 [1]: ~100 nM

CSCC[C@H](NC(=O)[C@H](Cc1ccc(O)cc1)NC(=O)[C@H](CO)NC(=O)[C@H](CC(N)=O)NC(=O)[C@H](CC(C)C)NC(=O)[C@H](Cc1c[nH]c2ccccc12)NC(=O)[C@H](Cc1c[nH]cn1)NC(=O)[C@H](CCCNC(=N)N)NC(=O)[C@H](CCCNC(=N)N)NC(=O)[C@H](CCC(=O)O)NC(=O)[C@H](CC(C)C)NC(=O)[C@H](C)NC(=O)[C@H](C)NC(=O)[C@H](CC(C)C)NC(=O)[C@H](CC(C)C)NC(=O)[C@H](CCCNC(=N)N)NC(=O)[C@H](C)NC(=O)[C@H](CCCNC(=N)N)NC(=O)[C@H](CCC(=O)O)NC(=O)[C@H](CCCNC(=N)N)NC(=O)[C@H](Cc1ccccc1)NC(=O)[C@H](C)NC(=O)[C@H](C)NC(=O)[C@H](CC(=O)O)NC(=O)[C@H](CC(=O)O)NC(=O)[C@H](C)NC(=O)[C@H](CC(C)C)NC(=O)[C@H](C)NC(=O)[C@H](CC(C)C)NC(=O)[C@@H](N)CO)C(=O)N[C@@H](Cc1c[nH]cn1)C(=O)N[C@@H](CCCCN)C(=O)N[C@@H](CC(C)C)C(=O)N[C@@H](CC(C)C)C(=O)N[C@H](C(=O)N[C@@H](CC(C)C)C(=O)N[C@@H](CC(=O)O)C(=O)N[C@@H](C)C(=O)N1CCC[C@H]1C(N)=O)C(C)C [TIP(1-39), reference compound]
inhibition of agonist actions (in words) [2]: inhibited the actions of the three agonists
stimulation of cAMP accumulation at the PTH1R (in words) [3]: failed to stimulate cAMP accumulation
stimulation of cAMP accumulation (in words) [4]: failed to stimulate cAMP accumulation
maximum cAMP accumulation [5]: 136.5±4.9 pmol/well

PTH(15-34)amide (LNSMERVEWLRKKLQDVHNF; not fully specified (C-terminus); UniProt P01270 46-65, looked up, fragment)
affinity for the PTH1R (in words) [6]: very low (micromolar) affinity

TIP(7-39): truncated TIP39 of Hoare et al., excluded from the claims (DAAFRERARLLAALERRHWLNSYMHKLLVLDAP; Tuberoinfundibular peptide of 39 residues; UniProt P0C171 68-100, looked up, fragment)
inhibition of radioligand binding to the PTH1R (in words) [7]: efficiently inhibited radioligand binding
agonist activity at the PTH1R (in words) [8]: no agonist activity

[Leu^11, D-Trp^12, Trp^23, Tyr^36]PTHrP(7-36)amide (from UniProt P12272 43-72) (peptide)
IC50 of inhibition of agonist-stimulated cAMP accumulation, HKrk-B7 cells [9]: 100 nM

B1: TIP(9-39) (peptide)
peptide: AFRERARLLAALERRHWLNSYMHKLLVLDAP
modifications: not fully specified (C-terminus)
notes: also called human TIP-(9-39)
IC50 [10]: 39 nM
IC50 [11]: 44 nM
fold improvement in apparent binding affinity relative to TIP(1-39) [12]: ≤ 6 fold
fold higher apparent binding affinity in comparison to the parent peptide TIP(1-39) [13]: ~5.5 fold
IC50 of inhibition of agonist-stimulated cAMP accumulation, HKrk-B7 cells (agonists PTH(1-34), PTHrP(1-36) or PTHrP(1-20)/TIP(23-39), 1 nM) [14]: 300 nM
